From IntAct's records for PubMed 22402663 come the findings set out here.

First the molecules themselves.
B1: Histone-lysine N-methyltransferase SETD7 (Homo sapiens), Q8WTS6 (parent)
chain: MDSDDEMVEEAVEGHLDDDGLPHGFCTVTYSSTDRFEGNFVHGEKNGRGKFFFFDGSTLEGYYVDDALQGQGVYTYEDGGVLQGTYVDGELNGPAQEYDTDGRLIFKGQYKDNIRHGVCWIYYPDGGSLVGEVNEDGEMTGEKIAYVYPDERTALYGKFIDGEMIEGKLATLMSTEEGRPHFELMPGNSVYHFDKSTSSCISTNALLPDPYESERVYVAESLISSAGEGLFSKVAVGPNTVMSFYNGVRITHQEVDSRDWALNGNTLSLDEETVIDVPEPYNHVSKYCASLGHKANHSFTPNCIYDMFVHPRFGPIKCIRTLRAVEADEELTVAYGYDHSPPGKSGPEAPEWYQVELKAFQATQQK
B2: Forkhead box protein O3 (Mus musculus), Q9WVH4 (parent)
chain: MAEAPASPVPLSPLEVELDPEFEPQSRPRSCTWPLQRPELQASPAKPSGETAADSMIPEEDDDEDDEDGGGRASSAMVIGGGVSSTLGSGLLLEDSAMLLAPGGQDLGSGPASAAGALSGGTPTQLQPQQPLPQPQPGAAGGSGQPRKCSSRRNAWGNLSYADLITRAIESSPDKRLTLSQIYEWMVRCVPYFKDKGDSNSSAGWKNSIRHNLSLHSRFMRVQNEGTGKSSWWIINPDGGKSGKAPRRRAVSMDNSNKYTKSRGRAAKKKAALQAAPESADDSPSQLSKWPGSPTSRSSDELDAWTDFRSRTNSNASTVSGRLSPILASTELDDVQDDDGPLSPMLYSSSASLSPSVSKPCTVELPRLTDMAGTMNLNDGLAENLMDDLLDNIALPPSQPSPPGGLMQRGSSFPYTAKSSGLGSPTGSFNSTVFGPSSLNSLRQSPMQTIQENRPATFSSVSHYGNQTLQDLLASDSLSHSDVMMTQSDPLMSQASTAVSAQNARRNVMLRNDPMMSFAAQPTQGSLVNQNLLHHQHQTQGALGGSRALSNSVSNMGLSDSSSLGSAKHQQQSPASQSMQTLSDSLSGSSLYSASANLPVMGHDKFPSDLDLDMFNGSLECDMESIIRSELMDADGLDFNFDSLISTQNVVGLNVGNFTGAKQASSQSWVPG
partner: B1 chain

The variants in the first assay derive from B1. The conditions noted are these: with foxo3_mouse Foxo3, Q9WVH4.
On to H297A, for which the “effect of a mutation on the interaction” value is given as “disrupting interaction”.

In a further assay the parent is B2. The conditions noted are these: with setd7_human SETD7, Q8WTS6.
Regarding K270R, the “effect of a mutation on the interaction” value was “disrupting interaction”.
